The target in test [1] is soluble form of recombinant mouse CD16 (sCD16) (mouse). As to the kind of experiment: ELISA.
Test [2] shares this target. As to the kind of experiment: SPR.

In the case of “OVA-IC (soluble immune complex of OVA and rabbit anti-OVA IgG) (from UniProt P01012 1-386)”, the Kd in test [1] stood at 90 nM.
As for “malondialdehyde-modified low-density lipoprotein (MDALDL)”, in test [2], the Kd was 25000 nM.
Still for that read-out and setting: the same measure for “peroxidase/anti-peroxidase immune complex (PAP-IC)”: 78 nM.

The values are drawn from article PMC4135013.
